Data as given in paper PMC2753297.
Positions count from the first letter of the chain named. Names and notes keep the numbering of the source.

B1: Wt EphA3-GFP, P29320 Y596E; Y602E; K653M (protein)
chain: ELIPQPSNEVNLLDSKTIQGELGWISYPSHGWEEISGVDEHYTPIRTYQVCNVMDHSQNNWLRTNWVPRNSAQKIYVELKFTLRDCNSIPLVLGTCKETFNLYYMESDDDHGVKFREHQFTKIDTIAADESFTQMDLGDRILKLNTEIREVGPVNKKGFYLAFQDVGACVALVSVRVYFKKCPFTVKNLAMFPDTVPMDSQSLVEVRGSCVNNSKEEDPPRMYCSTEGEWLVPIGKCSCNAGYEERGFMCQACRPGFYKALDGNMKCAKCPPHSSTQEDGSMNCRCENNYFRADKDPPSMACTRPPSSPRNVISNINETSVILDWSWPLDTGGRKDVTFNIICKKCGWNIKQCEPCSPNVRFLPRQFGLTNTTVTVTDLLAHTNYTFEIDAVNGVSELSSPPRQFAAVSITTNQAAPSPVLTIKKDRTSRNSISLSWQEPEHPNGIILDYEVKYYEKQEQETSYTILRARGTNVTISSLKPDTIYVFQIRARTAAGYGTNSRKFEFETSPDSFSISGESSQVVMIAISAAVAIILLTVVIYVLIGRFCGYKSKHGADEKRLHFGNGHLKLPGLRTEVDPHTEEDPTQAVHEFAKELDATNISIDKVVGAGEFGEVCSGRLKLPSKKEISVAIMTLKVGYTEKQRRDFLGEASIMGQFDHPNIIRLEGVVTKSKPVMIVTEYMENGSLDSFLRKHDAQFTVIQLVGMLRGIASGMKYLSDMGYVHRDLAARNILINSNLVCKVSDFGLSRVLEDDPEAAYTTRGGKIPIRWTSPEAIAYRKFTSASDVWSYGIVLWEVMSYGERPYWEMSNQDVIKAVDEGYRLPPPMDCPAALYQLMLDCWQKDRNNRPKFEQIVSILDKLIRNPGSLKIITSAAARPSNLLLDQSNVDITTFRTTGDWLNGVWTAHCKEIFTGVEYSSCDTIAKISTDDMKKVGVTVVGPQKKIISSIKALETQSKNGPVPV
B2: Wt EphA3-GFP, P29320 Y596E; Y602E (protein)
chain: B1 chain with M633K

Molecular target: T1, ADAM10 (immunoprecipitated with anti-ADAM10 from HEK293T cells), O14672
T1 chain: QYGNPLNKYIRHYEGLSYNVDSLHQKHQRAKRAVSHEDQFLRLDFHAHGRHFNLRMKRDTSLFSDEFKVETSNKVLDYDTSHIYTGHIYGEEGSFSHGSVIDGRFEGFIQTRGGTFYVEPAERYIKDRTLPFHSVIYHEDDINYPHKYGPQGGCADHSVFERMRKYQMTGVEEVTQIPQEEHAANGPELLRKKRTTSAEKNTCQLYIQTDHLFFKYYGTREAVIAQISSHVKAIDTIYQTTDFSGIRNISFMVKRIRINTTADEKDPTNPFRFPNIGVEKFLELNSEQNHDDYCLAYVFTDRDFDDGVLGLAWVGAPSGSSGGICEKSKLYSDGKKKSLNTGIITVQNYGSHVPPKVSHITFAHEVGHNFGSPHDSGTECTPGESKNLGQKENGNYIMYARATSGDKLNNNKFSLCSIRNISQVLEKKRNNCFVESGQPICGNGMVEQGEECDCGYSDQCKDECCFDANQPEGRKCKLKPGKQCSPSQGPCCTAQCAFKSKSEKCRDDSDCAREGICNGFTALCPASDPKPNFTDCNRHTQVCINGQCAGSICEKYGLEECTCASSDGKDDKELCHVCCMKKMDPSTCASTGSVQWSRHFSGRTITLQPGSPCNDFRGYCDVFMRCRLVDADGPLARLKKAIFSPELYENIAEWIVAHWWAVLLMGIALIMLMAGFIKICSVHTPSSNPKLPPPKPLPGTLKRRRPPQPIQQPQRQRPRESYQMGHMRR
Assay: co-immunoprecipitation (ADAM10 IP, EphA3 immunoblot, quantified)
Conditions: chain shown with the change; ephrin-A5-treated EphA3-transfected cells; n = 2 experiments; parent: est. 1.1; read off a plot; scale: ratio of EphA3 co-IP/lysate, EphA3[2YE] as internal reference

| Binder | response |
| --- | --- |
| B1 | 0.42 |
| B2 | 1 |
